{
  "source": "patent US20220125824A1",
  "biological_target": "mCherry-MazF (E. coli MazF ribonuclease fused to the C terminus of mCherry) (E. coli) (UniProt P0AE70)",
  "sequence (P0AE70 whole entry, the tested form may be a part)": "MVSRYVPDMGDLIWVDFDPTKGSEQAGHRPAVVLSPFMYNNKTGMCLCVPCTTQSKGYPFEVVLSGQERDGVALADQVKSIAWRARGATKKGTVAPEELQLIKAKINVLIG",
  "test": "cell-based or functional assay",
  "data": [
    {"substance": "E. coli antitoxin MazE (from UniProt P0AE72 1-82)", "values": [
      {"measurement": "mortality (MTT assay) of lung cancer cells co-infected with MazF and MazE viruses at a 1:0.5 MOI ratio", "result": 36, "unit": "%"},
      {"measurement": "yield of MazF-encoding adenovirus in HEK293 packaging cells that constitutively express MazE, compared with parental HEK293 cells (orders of magnitude)", "result": 2}
    ]}
  ]
}
